Test results taken from patent publication US20230235013A1 (MABSOLVE, published 2023).
Positions count from the first letter of the chain named. Names and notes keep the numbering of the source.

B1: anti-CD20 human IgG1 L234D/L235I/G236R (antibody)
heavy: QVQLQQPGAELVKPGASVKMSCKASGYTFTSYNMHWVKQTPGRGLEWIGAIYPGNGDTSYNQKFKGKATLTADKSSSTAYMQLSSLTSEDSAVYYCARSTYYGGDWYFNVWGAGTTVTVSSASTKGPSVFPLAPSSKSTSGGTAALGCLVKDYFPEPVTVSWNSGALTSGVHTFPAVLQSSGLYSLSSVVTVPSSSLGTQTYICNVNHKPSNTKVDKKVEPKSCDKTHTCPPCPAPEDIRGPSVFLFPPKPKDTLMISRTPEVTCVVVDVSHEDPEVKFNWYVDGVEVHNAKTKPREEQYNSTYRVVSVLTVLHQDWLNGKEYKCKVSNKALPAPIEKTISKAKGQPREPQVYTLPPSRDELTKNQVSLTCLVKGFYPSDIAVEWESNGQPENNYKTTPPVLDSDGSFFLYSKLTVDKSRWQQGNVFSCSVMHEALHNHYTQKSLSLSPGK
light: QIVLSQSPAILSASPGEKVTMTCRASSSVSYIHWFQQKPGSSPKPWIYATSNLASGVPVRFSGSGSGTSYSLTISRVEAEDAATYYCQQWTSNPPTFGGGTKLEIKRTVAAPSVFIFPPSDEQLKSGTASVVCLLNNFYPREAKVQWKVDNALQSGNSQESVTEQDSKDSTYSLSSTLTLSKADYEKHKVYACEVTHQGLSSPVTKSFNRGEC
notes: also called 1-22; copies: 2 + 2
B2: anti-CD20 human IgG1 L234E/G236R (antibody)
heavy: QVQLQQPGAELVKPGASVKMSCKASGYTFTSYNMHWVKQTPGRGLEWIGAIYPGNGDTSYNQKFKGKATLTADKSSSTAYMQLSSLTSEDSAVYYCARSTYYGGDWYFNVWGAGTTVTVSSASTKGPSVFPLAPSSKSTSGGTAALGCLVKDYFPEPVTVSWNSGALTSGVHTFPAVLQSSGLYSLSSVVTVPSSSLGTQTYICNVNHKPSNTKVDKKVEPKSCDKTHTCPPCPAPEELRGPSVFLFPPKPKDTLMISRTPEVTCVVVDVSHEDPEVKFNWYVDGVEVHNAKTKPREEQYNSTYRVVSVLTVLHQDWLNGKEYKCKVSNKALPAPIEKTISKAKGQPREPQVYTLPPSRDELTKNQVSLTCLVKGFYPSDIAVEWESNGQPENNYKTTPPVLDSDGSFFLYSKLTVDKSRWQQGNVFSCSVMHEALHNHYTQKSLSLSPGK
light: B1 light
notes: also called 1-39; 2-15; copies: 2 + 2
B3: anti-CD20 human IgG1 L234D/L235T/G236R (antibody)
heavy: B1 heavy with I239T
light: B1 light
notes: also called 1-30; 2-11; copies: 2 + 2
B4: anti-CD20 human IgG1 L234G/L235Q/G236R (antibody)
heavy: B1 heavy with D238G, I239Q
light: B1 light
notes: also called 1-57; 2-18; copies: 2 + 2
B5: anti-CD20 human IgG1 L234G/G236R (antibody)
heavy: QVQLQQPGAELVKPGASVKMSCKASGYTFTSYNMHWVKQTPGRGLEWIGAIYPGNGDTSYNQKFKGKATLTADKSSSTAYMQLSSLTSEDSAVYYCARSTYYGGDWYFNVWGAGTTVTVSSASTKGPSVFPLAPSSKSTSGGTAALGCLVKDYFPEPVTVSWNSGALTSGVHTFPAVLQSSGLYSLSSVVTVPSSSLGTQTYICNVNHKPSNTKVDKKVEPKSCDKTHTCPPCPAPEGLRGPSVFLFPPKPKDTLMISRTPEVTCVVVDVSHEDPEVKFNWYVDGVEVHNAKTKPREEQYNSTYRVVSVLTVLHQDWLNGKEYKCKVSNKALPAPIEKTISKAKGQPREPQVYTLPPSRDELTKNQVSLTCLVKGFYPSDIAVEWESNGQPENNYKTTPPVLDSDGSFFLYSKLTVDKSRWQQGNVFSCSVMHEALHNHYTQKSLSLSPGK
light: B1 light
notes: also called 1-54; 2-85; copies: 2 + 2
B6: anti-CD20 human IgG1 L234H/L235A/G236R (antibody)
heavy: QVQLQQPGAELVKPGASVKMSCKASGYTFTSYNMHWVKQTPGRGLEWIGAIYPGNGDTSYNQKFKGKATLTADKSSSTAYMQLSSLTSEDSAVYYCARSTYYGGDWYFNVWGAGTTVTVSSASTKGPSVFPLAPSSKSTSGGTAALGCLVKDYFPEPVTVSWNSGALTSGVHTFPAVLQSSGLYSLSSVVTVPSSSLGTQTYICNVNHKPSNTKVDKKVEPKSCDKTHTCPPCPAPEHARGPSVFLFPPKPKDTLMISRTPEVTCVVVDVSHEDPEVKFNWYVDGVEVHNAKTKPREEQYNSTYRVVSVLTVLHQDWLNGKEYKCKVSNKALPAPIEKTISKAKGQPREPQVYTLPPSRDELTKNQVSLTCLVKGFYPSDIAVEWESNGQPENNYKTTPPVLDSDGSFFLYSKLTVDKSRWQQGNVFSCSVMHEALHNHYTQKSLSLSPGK
light: B1 light
notes: also called 1-62; copies: 2 + 2
B7: anti-CD20 human IgG1 L234H/L235G/G236R (antibody)
heavy: B1 heavy with D238H, I239G
light: B1 light
notes: also called 1-65; copies: 2 + 2
B8: anti-CD20 human IgG1 L234D/L235Q/G236R (antibody)
heavy: B1 heavy with I239Q
light: B1 light
notes: also called 1-27; 2-9; copies: 2 + 2
B9: anti-CD20 human IgG1 L234G/L235N/G236R (antibody)
heavy: B1 heavy with D238G, I239N
light: B1 light
notes: also called 1-56; copies: 2 + 2
B10: anti-CD20 human IgG1 L234E/L235R/G236R (antibody)
heavy: B1 heavy with D238E, I239R
light: B1 light
notes: also called 1-43; copies: 2 + 2
B11: anti-CD20 human IgG1 L234D/L235V/G236R (antibody)
heavy: B1 heavy with I239V
light: B1 light
notes: also called 1-31; copies: 2 + 2
B12: anti-CD20 human IgG1 L234G/L235D/G236R (antibody)
heavy: B1 heavy with D238G, I239D
light: B1 light
notes: also called 1-48; copies: 2 + 2
B13: anti-CD20 human IgG1 L234G/L235T/G236R (antibody)
heavy: B1 heavy with D238G, I239T
light: B1 light
notes: also called 1-60; copies: 2 + 2
B14: anti-CD20 human IgG1 L234E/L235G/G236R (antibody)
heavy: B1 heavy with D238E, I239G
light: B1 light
notes: also called 1-35; copies: 2 + 2
B15: anti-CD20 human IgG1 L234G/L235K/G236R (antibody)
heavy: B1 heavy with D238G, I239K
light: B1 light
notes: also called 1-53; copies: 2 + 2
B16: anti-CD20 human IgG1 L234G/L235M/G236R (antibody)
heavy: B1 heavy with D238G, I239M
light: B1 light
notes: also called 1-55; copies: 2 + 2
B17: anti-CD20 human IgG1 L234E/L235S/G236R (antibody)
heavy: B1 heavy with D238E, I239S
light: B1 light
notes: also called 1-44; copies: 2 + 2
B18: anti-CD20 human IgG1 L234E/L235K/G236R (antibody)
heavy: B1 heavy with D238E, I239K
light: B1 light
notes: also called 1-38; copies: 2 + 2
B19: anti-CD20 human IgG1 L234G/L235I/G236R (antibody)
heavy: B1 heavy with D238G
light: B1 light
notes: also called 1-52; copies: 2 + 2
B20: anti-CD20 human IgG1 L234E/L235E/G236R (antibody)
heavy: B1 heavy with D238E, I239E
light: B1 light
notes: also called 1-34; copies: 2 + 2
B21: anti-CD20 human IgG1 L234E/L235T/G236R (antibody)
heavy: B1 heavy with D238E, I239T
light: B1 light
notes: also called 1-45; copies: 2 + 2
B22: anti-CD20 human IgG1 L234G/L235R/G236R (antibody)
heavy: B1 heavy with D238G, I239R
light: B1 light
notes: also called 1-58; copies: 2 + 2
B23: anti-CD20 human IgG1 L234H/L235E/G236R (antibody)
heavy: B1 heavy with D238H, I239E
light: B1 light
notes: also called 1-64; copies: 2 + 2
B24: anti-CD20 human IgG1 L234H/L235D/G236R (antibody)
heavy: B1 heavy with D238H, I239D
light: B1 light
notes: also called 1-63; copies: 2 + 2
B25: anti-CD20 human IgG1 L234D/L235M/G236R (antibody)
heavy: B1 heavy with I239M
light: B1 light
notes: also called 1-25; copies: 2 + 2
B26: anti-CD20 human IgG1 L234D/L235N/G236R (antibody)
heavy: B1 heavy with I239N
light: B1 light
notes: also called 1-26; copies: 2 + 2
B27: anti-CD20 human IgG1 L234E/L235A/G236R (antibody)
heavy: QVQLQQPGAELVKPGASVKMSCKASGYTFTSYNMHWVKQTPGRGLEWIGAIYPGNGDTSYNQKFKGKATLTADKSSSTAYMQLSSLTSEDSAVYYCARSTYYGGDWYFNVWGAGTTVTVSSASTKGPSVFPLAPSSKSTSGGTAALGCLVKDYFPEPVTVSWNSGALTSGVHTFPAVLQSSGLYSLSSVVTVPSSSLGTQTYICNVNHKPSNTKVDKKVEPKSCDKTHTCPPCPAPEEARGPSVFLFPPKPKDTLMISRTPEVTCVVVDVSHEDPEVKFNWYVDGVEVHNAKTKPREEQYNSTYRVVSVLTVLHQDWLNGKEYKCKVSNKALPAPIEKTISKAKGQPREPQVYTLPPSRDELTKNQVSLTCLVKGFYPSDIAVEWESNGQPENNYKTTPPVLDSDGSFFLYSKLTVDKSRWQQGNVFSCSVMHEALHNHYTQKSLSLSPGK
light: B1 light
notes: also called 1-32; copies: 2 + 2
B28: anti-CD20 human IgG1 L234G/L235A/G236R (antibody)
heavy: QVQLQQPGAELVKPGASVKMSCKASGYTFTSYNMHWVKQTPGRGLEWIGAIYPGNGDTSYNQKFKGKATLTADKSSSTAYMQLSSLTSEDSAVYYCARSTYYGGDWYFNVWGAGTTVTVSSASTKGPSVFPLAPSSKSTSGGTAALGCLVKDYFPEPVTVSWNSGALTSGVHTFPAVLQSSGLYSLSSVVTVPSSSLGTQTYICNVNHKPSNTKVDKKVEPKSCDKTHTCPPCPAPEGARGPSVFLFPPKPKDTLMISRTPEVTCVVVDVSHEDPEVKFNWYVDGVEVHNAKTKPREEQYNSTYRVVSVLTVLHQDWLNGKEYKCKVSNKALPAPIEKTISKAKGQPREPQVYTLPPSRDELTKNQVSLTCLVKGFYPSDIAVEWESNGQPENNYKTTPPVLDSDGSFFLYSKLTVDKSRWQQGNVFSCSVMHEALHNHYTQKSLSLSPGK
light: B1 light
notes: also called 1-47; copies: 2 + 2
B29: anti-CD20 human IgG1 L234G/L235G/G236R (antibody)
heavy: B1 heavy with D238G, I239G
light: B1 light
notes: also called 1-50; copies: 2 + 2
B30: anti-CD20 human IgG1 L234G/L235E/G236R (antibody)
heavy: B1 heavy with D238G, I239E
light: B1 light
notes: also called 1-49; copies: 2 + 2
B31: anti-CD20 human IgG1 L234H/L235H/G236R (antibody)
heavy: B1 heavy with D238H, I239H
light: B1 light
notes: also called 1-66; copies: 2 + 2
B32: anti-CD20 human IgG1 L234E/L235Q/G236R (antibody)
heavy: B1 heavy with D238E, I239Q
light: B1 light
notes: also called 1-42; copies: 2 + 2
B33: anti-CD20 human IgG1 L234G/L235H/G236R (antibody)
heavy: B1 heavy with D238G, I239H
light: B1 light
notes: also called 1-51; 2-17; copies: 2 + 2
B34: anti-CD20 human IgG1 L234E/L235V/G236R (antibody)
heavy: B1 heavy with D238E, I239V
light: B1 light
notes: also called 1-46; 2-16; copies: 2 + 2
B35: anti-CD20 human IgG1 L234D/L235R/G236R (antibody)
heavy: B1 heavy with I239R
light: B1 light
notes: also called 1-28; copies: 2 + 2
B36: anti-CD20 human IgG1 L234E/L235H/G236R (antibody)
heavy: B1 heavy with D238E, I239H
light: B1 light
notes: also called 1-36; 2-13; copies: 2 + 2

Biological target: T1, Histidine-tagged recombinant human FcγRI (CD64) (human, UniProt P12314 16-288)
T1 construct: bought; also called Sino Biological Cat. No. 12056-H08H
Test: SPR, culture supernatant, captured His-FcγRI;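 further: biacore T200 SPR at 25 °C, anti-His capture, supernatants of HEK293 cells expressing IgG1 Fc variants injected 1 min, reference-subtracted response read 55 s after injection start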
Protocol: Binding analysis was carried out by surface plasmon resonance at 25° C. using a Biacore® T200 instrument with Biacore® T200 control software. The running buffer (HBS-EP+) consisted of 0.01 M HEPES pH 7.4, containing 0.15 M NaCl, 3 mM EDTA, and 0.05% v/v Surfactant P20. The sample compartment was held at 4° C. during analysis.
The cell was activated by treatment with EDC/NHS for 7 min. The antibody was diluted to 5 μg/mL in 10 mM sodium acetate pH 4.5 and injected for 7 min at 5 μL/min. The flow cell was deactivated by injection of 1M ethanolamine for 7 min. This process was repeated in the absence of anti-his antibody on a separate flow cell to generate a reference surface. […] Samples of undiluted culture supernatants from HEK293 cells expressing human IgG1 antibodies comprising variant Fc regions were injected for 1 min at 30 μL/min and allowed to disassociate for 2 min. […] Therefore, regeneration between cycles was not necessary. Responses on the test flow cell (coupled with anti-His antibody) were analysed after subtraction of responses on the control flow cell (sham-coupled). The relative binding response was measured 55 sec after the beginning of sample injection. To account for any possible drift in response due to slow dissociation of the His-tagged FcγRI, the binding response was measured relative to a baseline interpolated between report points located before sample injection and at the end of dissociation.
The whole experiment was repeated three times. Due to the relatively crude nature of the samples (variable refractive index, presence of culture media and other cellular products), some sensorgrams were unsatisfactory and were eliminated from analysis. The mean and standard deviation of binding response was then calculated for each sample.

| Mean binding response [RU] | Binder |
| --- | --- |
| 25.3 | B1 |
| 17.6 | B2 |
| 4.3 | B3 |
| 13.6 | B4 |
| 28.5 | B5 |
| 29.4 | B6 |
| 31.6 | B7 |
| 8.3 | B8 |
| 26.8 | B9 |
| 26.7 | B10 |
| 27.2 | B11 |
| 23.6 | B12 |
| 26.5 | B13 |
| 71.2 | B14 |
| 27.4 | B15 |
| 23.2 | B16 |
| 39.2 | B17 |
| 34.1 | B18 |

| Mean binding response [RU] | Binder |
| --- | --- |
| 29.2 | B19 |
| 30.9 | B20 |
| 29.6 | B21 |
| 29.3 | B22 |
| 22.8 | B23 |
| 38.5 | B24 |
| 28.4 | B25 |
| 26.5 | B26 |
| 44.1 | B27 |
| 23 | B28 |
| 29.5 | B29 |
| 31.8 | B30 |
| 36.3 | B31 |
| 33.7 | B32 |
| 19 | B33 |
| 18.4 | B34 |
| 47 | B35 |
| 21.4 | B36 |
